Laboratory results taken from patent publication US20090123489A1 (IMMATICS BIOTECHNOLOGIES, published 2009).

Biological target: HLA-A*0201 (recombinant heavy chain with beta-2 microglobulin) (human)
Experiment: ELISA-based HLA refolding assay
Procedure: Stable HLA/peptide complexes consist of three molecules: HLA heavy chain, beta-2 microglobulin (b2m) and the peptidic ligand. […] The availability of these molecules is used in an ELISA-based assay to measure the affinity of interaction between peptide and HLA class I molecule (Sylvester-Hvid et al., 2002).
The amount of de novo-folded HLA/peptide complexes was determined by a quantitative ELISA. Dissociation constants (KD values) were calculated using a standard curve recorded from dilutions of a calibrant HLA/peptide complex.

Row | Binder | binding result
1 | AIIDGVESV [PTP-003] | binds
2 | FLLPDTDGL [PTP-004] | binds
3 | FLYKVILSL [PTP-002] | binds

Now from value to binder:

Row | binding result | Binder
4 | binds | SLWAGVVVL [CHI-001]
5 | binds | ALTTLMHQL (9-mer from PTPRZ1) [PTP-001]
6 | binds | KVFAGIPTV [PTP-005]

Biological target: T1, HLA-A*0205 (human)
T1 construct: whole, on cells; Native HLA precipitated from tumor tissue
Experiment: peptide eluted from HLA precipitated from glioblastoma tissue, identified by ESI-LCMS

Row | binding result | Binder
7 | binds | ALTTLMHQL (9-mer from PTPRZ1) [PTP-001]
